Laboratory results taken from patent US20180244785A1 (MERRIMACK PHARMACEUTICALS, published 2018).
Values belong to the binder of their own block, whether it stands above or below them.

What was measured:
[1] = target: T1, 6His-Fc-FGFR1c (human, UniProt P11362 141-376); test: competition ELISA, blocks 6His-Fc-FGFR1c binding to coated FGF2
T1 construct: not shown: 6His tag and Fc as named in '6His-Fc-FGFR'
T1 sequence: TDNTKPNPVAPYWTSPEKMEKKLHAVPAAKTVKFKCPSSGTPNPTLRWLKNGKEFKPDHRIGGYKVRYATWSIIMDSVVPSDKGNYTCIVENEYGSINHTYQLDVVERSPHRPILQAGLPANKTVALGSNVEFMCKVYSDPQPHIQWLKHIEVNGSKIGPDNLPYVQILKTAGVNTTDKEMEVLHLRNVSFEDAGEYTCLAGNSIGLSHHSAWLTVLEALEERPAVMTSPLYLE
Description: (§1) ELISA plates were coated with 50 ug/ml Heparin Sulfate (HSPG) (Sigma Aldrich) and incubated overnight at room temperature. Plates were then washed extensively with PBS containing 0.05% v/v Tween20 (PBST). Plates were then blocked with 2.5% BSA in PBST for one hour and washed extensively as before. 40-60 μL of FGF1 or FGF2 was then added to each well at 40 μg/ml and allowed to bind at room temperature for 2 hours. Plates were then washed extensively with PBST as before. Stock solutions of each 6His-Fc-FGFR (FGFR1-4) were prepared at 500 ng/ml in 2% v/v BSA-PBST and each antibody was prepared as a 2×-dilution series in 2% v/v BSA-PBST. Antibodies dilution series and 6His-Fc-FGFR1-4 were diluted in a 1:1 fashion and immediately added to the relative wells of the plate and allowed to bind for 2 hours at room temperature. Plates were washed extensively as before with PBST and the remaining fraction of bound 6His-Fc-FGFR was detected using a polyclonal-anti-His-6-HRP conjugated antibody (Abcam) for one hour at room temperature. After extensive washing with PBST, 50 μl of Pierce Chemiluminescent substrate (Thermo Fisher Scientific, Rockford, USA) was added and plates were measured on an Envision plate reader (Perkin Elmer). Raw data was background corrected and plotted using Prism software. […]

[2] = target: T2, 6His-Fc-FGFR4 (human, UniProt P22455 144-369); test: competition ELISA, blocks 6His-Fc-FGFR4 binding to coated FGF2
T2 construct: not shown: 6His tag and Fc as named in '6His-Fc-FGFR'
T2 sequence: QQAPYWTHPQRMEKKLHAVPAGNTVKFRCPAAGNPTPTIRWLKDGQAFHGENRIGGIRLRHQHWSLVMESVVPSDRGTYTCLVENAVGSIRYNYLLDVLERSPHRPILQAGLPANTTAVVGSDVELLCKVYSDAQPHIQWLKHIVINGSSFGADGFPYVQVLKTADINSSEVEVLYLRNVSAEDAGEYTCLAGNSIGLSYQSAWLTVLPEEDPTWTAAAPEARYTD
Description: as §1

[3] = target: T3, soluble FGFR4 receptor protein (human, UniProt P22455 144-369); test: BLI Octet RED96, antibody on anti-hIgG Fc tip
T3 sequence: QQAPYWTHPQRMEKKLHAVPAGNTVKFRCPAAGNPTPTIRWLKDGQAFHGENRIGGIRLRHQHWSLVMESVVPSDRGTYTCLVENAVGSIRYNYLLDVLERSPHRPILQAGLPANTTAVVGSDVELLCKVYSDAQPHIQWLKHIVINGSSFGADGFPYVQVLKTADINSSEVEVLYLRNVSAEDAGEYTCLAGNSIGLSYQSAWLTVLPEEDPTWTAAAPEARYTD
Description: (§2) Briefly, the Pall ForteBio Octet RED96 Bio-Layer Interferometry system was used to determine the specificity of anti-FGFR antibodies for FGFR1c, FGFR2c, FGFR3c, and FGFR4. The antibodies and soluble receptor proteins were prepared in PBS at a concentration of 300 nM. First, the candidate antibodies were immobilized on the surface of anti-human IgG Fc biosensor tips for 120 seconds. After immobilization, the biosensors were dipped in PBS solution for 60 seconds (baseline step) to assess assay drift, and determine loading level of antibodies. The baseline step was followed by an association step of 300 seconds wherein the binding interaction between the immobilized antibodies and soluble receptors was measured. Following the association step, the biosensors were dipped into PBS buffer for 600 seconds to measure the dissociation of the bound receptor proteins from the immobilized antibodies. Each binding response was measured and reported real time on a sensorgram trace. For data analysis, a simple 1:1 binding model was used which measures the rate of complex formation of one immobilized antibody and one soluble receptor protein.

[4] = target: soluble FGFR2c receptor protein (human, UniProt P21802 148-377); test: BLI Octet RED96, antibody on anti-hIgG Fc tip
Description: as §2

[5] = target: T4, soluble FGFR3c receptor protein (human, UniProt P22607 141-372); test: BLI Octet RED96, antibody on anti-hIgG Fc tip
T4 sequence: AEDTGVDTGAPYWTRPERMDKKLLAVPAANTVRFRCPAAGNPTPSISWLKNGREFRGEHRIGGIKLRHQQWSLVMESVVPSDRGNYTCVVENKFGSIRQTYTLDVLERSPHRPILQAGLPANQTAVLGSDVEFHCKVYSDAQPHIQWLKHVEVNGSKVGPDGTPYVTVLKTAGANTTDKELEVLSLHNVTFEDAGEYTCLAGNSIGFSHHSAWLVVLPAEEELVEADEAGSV
Description: as §2

[6] = target: T5, soluble FGFR1c receptor protein (human, UniProt P11362 141-376); test: BLI Octet RED96, antibody on anti-hIgG Fc tip
T5 sequence: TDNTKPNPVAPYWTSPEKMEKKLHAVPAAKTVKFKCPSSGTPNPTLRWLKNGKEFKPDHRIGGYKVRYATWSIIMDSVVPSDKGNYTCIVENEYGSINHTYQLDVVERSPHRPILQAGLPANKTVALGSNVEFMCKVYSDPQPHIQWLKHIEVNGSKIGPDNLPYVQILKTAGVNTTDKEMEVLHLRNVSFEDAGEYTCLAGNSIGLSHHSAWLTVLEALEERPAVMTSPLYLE
Description: as §2

Chain of soluble FGFR2c receptor protein (P21802 148-377): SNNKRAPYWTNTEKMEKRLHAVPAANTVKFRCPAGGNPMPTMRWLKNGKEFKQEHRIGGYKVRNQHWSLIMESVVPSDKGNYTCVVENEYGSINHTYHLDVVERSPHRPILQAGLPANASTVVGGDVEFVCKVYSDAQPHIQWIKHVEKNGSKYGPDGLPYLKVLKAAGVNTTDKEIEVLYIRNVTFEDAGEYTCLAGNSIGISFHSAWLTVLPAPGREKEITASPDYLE

B1: Ab59 (antibody, human IgG2, kappa, V domains shown)
VH: EVQLLESGGGVVQPGRSLRLSCAASGFTFSSYAMHWVRQAPGKGLEWVAVISYDGSNKYYADSVKGRFTISRDNSKNTLSLQMNSLRVEDTAIYYCVRGAGRGYPYGPDGFDIWGQGTMVTVSS
VL: DIVMTQTPLSLSVTPGQPASISCTSSRSLLHSDGKTYVYWYVQKSGQPPQLLIYELSNRFSGVPDRFSGSGSRTDFTLKISRVEAEDVGVYYCMQYIEAPLTFGGGTKVEIKR
notes: format in the assays not spelled out
IC50 [1]: 2.22 nM
IC50 [2]: ~6.86 nM

B2: Vk9 combined with the VH of Ab15 (antibody, V domains shown)
VH: EVQLLESGGGVVQPGRSLRLSCAASGFTFSSYAMHWVRQAPGKGLEWVAVISYDGSNKYYADSVKGRFTISRDNSKNTLSLQMNSLRVEDTAIYYCVRGAGRGYTYGPDGFDIWGQGTMVTVSS
VL: DIVMTQSPDSLAVSLGERATINCKSSQSLLHSDGKTYVYWYQQKPGQPPKLLIYELSNRFSGVPDRFSGSGSGTDFTLTISSLQAEDVAVYYCMQYIEAPLTFGGGTKVEIK
notes: captured on anti-human IgG Fc tips
Kd [3]: 4.89 nM
koff [3]: 0.000692 s⁻¹
kon [3]: 142000 M⁻¹ s⁻¹
Kd [4]: 7.35 nM
koff [4]: 0.00172 s⁻¹
kon [4]: 234000 M⁻¹ s⁻¹
Kd [5]: 5.43 nM
koff [5]: 0.000749 s⁻¹
kon [5]: 138000 M⁻¹ s⁻¹
Kd [6]: 2.39 nM
koff [6]: 0.000137 s⁻¹
kon [6]: 57200 M⁻¹ s⁻¹

B4: Vk10 combined with the VH of Ab15 (antibody, V domains shown)
VH: EVQLLESGGGVVQPGRSLRLSCAASGFTFSSYAMHWVRQAPGKGLEWVAVISYDGSNKYYADSVKGRFTISRDNSKNTLSLQMNSLRVEDTAIYYCVRGAGRGYTYGPDGFDIWGQGTMVTVSS
VL: DIVMTQSPDSLAVSLGERATISCTSSRSLLHSDGKTYVYWYQQKPGQPPKLLIYELSNRFSGVPDRFSGSGSRTDFTLTISSLQAEDVAVYYCMQYIEAPLTFGGGTKVEIK
notes: as for B2
Kd [3]: 4.43 nM
koff [3]: 0.000585 s⁻¹
kon [3]: 132000 M⁻¹ s⁻¹
Kd [4]: 6.49 nM
koff [4]: 0.00142 s⁻¹
kon [4]: 220000 M⁻¹ s⁻¹
Kd [5]: 5.23 nM
koff [5]: 0.000701 s⁻¹
kon [5]: 134000 M⁻¹ s⁻¹
Kd [6]: 5.33 nM
koff [6]: 0.000294 s⁻¹
kon [6]: 55200 M⁻¹ s⁻¹

B5: Vk12 combined with the VH of Ab15 (antibody, V domains shown)
VH: EVQLLESGGGVVQPGRSLRLSCAASGFTFSSYAMHWVRQAPGKGLEWVAVISYDGSNKYYADSVKGRFTISRDNSKNTLSLQMNSLRVEDTAIYYCVRGAGRGYTYGPDGFDIWGQGTMVTVSS
VL: DIVMTQSPLSLPVTPGEPASISCTSSRSLLHSDGKTYVYWYLQKPGQSPQLLIYELSNRFSGVPDRFSGSGSGTDFTLKISRVEAEDVGVYYCMQYIEAPLTFGGGTKVEIK
notes: as for B2
Kd [3]: 7.01 nM
koff [3]: 0.000925 s⁻¹
kon [3]: 132000 M⁻¹ s⁻¹
Kd [4]: 9.76 nM
koff [4]: 0.0021 s⁻¹
kon [4]: 215000 M⁻¹ s⁻¹
Kd [5]: 6.38 nM
koff [5]: 0.000806 s⁻¹
kon [5]: 126000 M⁻¹ s⁻¹
Kd [6]: 6.51 nM
koff [6]: 0.000345 s⁻¹
kon [6]: 53000 M⁻¹ s⁻¹

B7: Ab40 (antibody, human IgG2, kappa, V domains shown)
VH: EVQLLESGGGVVQPGRSLRLSCAASGFTFSSYAMHWVRQAPGKGLEWVAVISYDGSNKYYADSVKGRFTISRDNSKNTLSLQMNSLRVEDTAIYYCVRGAGMGLTYGPDGFDIWGQGTMVTVSS
VL: DIVMTQTPLSLSVTPGQPASISCRSSRSLLHSDGKTYVYWYVQKSGQPPQLLIYELSNRFSGVPDRFSGSGSRTDFTLKISRVEAEDVGVYYCMQYIEAPLTFGGGTKVEIKR
notes: as for B1
IC50 [1]: 4.85 nM
IC50 [2]: 17.5 nM

B8: Ab49 (antibody, human IgG2, kappa, V domains shown)
VH: EVQLLESGGGVVQPGRSLRLSCAASGFTFSSYAMHWVRQAPGKGLEWVAVISYDGSNKYYADSVKGRFTISRDNSKNTLSLQMNSLRVEDTAIYYCVRGAGRGYPYGPDGFDIWGQGTMVTVSS
VL: DIVMTQTPLSLSVTPGQPASISCRSSRSLLHSDGKTYVYWYVQKSGQPPQLLIYELSNRFSGVPDRFSGSGSRTDFTLKISRVEAEDVGVYYCMQYIEAPLTFGGGTKVEIKR
notes: as for B1
IC50 [1]: 4.67 nM
IC50 [2]: 18.4 nM

B10: Ab43 (antibody, human IgG2, kappa, V domains shown)
VH: EVQLLESGGGVVQPGRSLRLSCAASGFTFSSYAMHWVRQAPGKGLEWVAVISYDGSNKYYADSVKGRFTISRDNSKNTLSLQMNSLRVEDTAIYYCVRGAGRGYPYGPDGFDIWGQGTMVTVSS
VL: DIVMTQTPLSLSVTPGQPASISCRSSRSLLHSDGKTYVYWYVQKSGQPPQLLIYELSNRFSGVPDRFSGSGSRTDFTLKISRVEAEDVGVYYCMQYIEAPLTFGGGTKVEIKR
notes: as for B1
IC50 [1]: 6.62 nM
IC50 [2]: 10 nM

The remaining binders from weak to strong by IC50 [1], led by results:

IC50 [1]: 3.86 nM
IC50 [2]: 21.1 nM
B9: Ab51 (antibody, human IgG2, kappa, V domains shown)
VH: EVQLLESGGGVVQPGRSLRLSCAASGFTFSSYAMHWVRQAPGKGLEWVAVISYDGSNKYYADSVKGRFTISRDNSKNTLSLQMNSLRVEDTAIYYCVRGAGRGFPYGPDGFDIWGQGTMVTVSS
VL: DIVMTQTPLSLSVTPGQPASISCRSSRSLLHSDGKTYVYWYVQKSGQPPQLLIYELSNRFSGVPDRFSGSGSRTDFTLKISRVEAEDVGVYYCMQYIEAPLTFGGGTKVEIKR
notes: as for B1

IC50 [1]: 3.53 nM
IC50 [2]: 9.87 nM
B3: Ab41 (antibody, human IgG2, kappa, V domains shown)
VH: EVQLLESGGGVVQPGRSLRLSCAASGFTFSSYAMHWVRQAPGKGLEWVAVISYDGSNKYYADSVKGRFTISRDNSKNTLSLQMNSLRVEDTAIYYCVRGAGLGFPYGPDGFDIWGQGTMVTVSS
VL: DIVMTQTPLSLSVTPGQPASISCRSSRSLLHSDGKTYVYWYVQKSGQPPQLLIYELSNRFSGVPDRFSGSGSRTDFTLKISRVEAEDVGVYYCMQYIEAPLTFGGGTKVEIKR
notes: as for B1

IC50 [1]: 3.03 nM
IC50 [2]: 13.6 nM
B11: Ab56 (antibody, human IgG2, kappa, V domains shown)
VH: EVQLLESGGGVVQPGRSLRLSCAASGFTFSSYAMHWVRQAPGKGLEWVAVISYDGSNKYYADSVKGRFTISRDNSKNTLSLQMNSLRVEDTAIYYCVRGAGMGLTYGPDGFDIWGQGTMVTVSS
VL: DIVMTQTPLSLSVTPGQPASISCTSSRSLLHSDGKTYVYWYVQKSGQPPQLLIYELSNRFSGVPDRFSGSGSRTDFTLKISRVEAEDVGVYYCMQYIEAPLTFGGGTKVEIKR
notes: as for B1

IC50 [1]: 2.8 nM
IC50 [2]: 8.41 nM
B6: Ab57 (antibody, human IgG2, kappa, V domains shown)
VH: EVQLLESGGGVVQPGRSLRLSCAASGFTFSSYAMHWVRQAPGKGLEWVAVISYDGSNKYYADSVKGRFTISRDNSKNTLSLQMNSLRVEDTAIYYCVRGAGLGFPYGPDGFDIWGQGTMVTVSS
VL: DIVMTQTPLSLSVTPGQPASISCTSSRSLLHSDGKTYVYWYVQKSGQPPQLLIYELSNRFSGVPDRFSGSGSRTDFTLKISRVEAEDVGVYYCMQYIEAPLTFGGGTKVEIKR
notes: as for B1
